The supplement of paper PMC9112550, “Optimization of the antimicrobial peptide Bac7 by deep mutational scanning” (BMC Biology, 2022)

system: Escherichia coli TOP10; experiment: shrunken log2 fold change of peptide-encoding DNA abundance (4.5 h post-induction vs induction); higher = less antimicrobial activity (less host growth inhibition); details: time post-induction: 4.5 h; library: site-saturation at positions 5, 18, 19, 20
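Also: peptides expressed intracellularly from a pBAD plasmid library in pooled LB shake-flask culture, induced with 0.3% L-arabinose, DNA abundance read by NGS, three biological replicates, DESeq2 with apeglm shrinkage.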

Sequence | shrunken log2 fold change
RRIRRRPPRLPRPRPRPVAMPRP | 0.342
RRIRIRPPRLPRPRPRPLARPRP | 0.346
RRIRWRPPRLPRPRPRPSWAPRP | 0.152
RRIRNRPPRLPRPRPRPFGFPRP | -0.132
RRIRARPPRLPRPRPRPMKTPRP | 0.0191
RRIRWRPPRLPRPRPRPGSCPRP | 0.389
RRIRDRPPRLPRPRPRPFQTPRP | 0.0255
RRIRSRPPRLPRPRPRPKHVPRP | -0.183
RRIRRRPPRLPRPRPRPPVVPRP | 0.26
RRIRRRPPRLPRPRPRPKAGPRP | 0.319
RRIRGRPPRLPRPRPRPHCSPRP | 0.144
RRIRPRPPRLPRPRPRPHHWPRP | -0.103
RRIRWRPPRLPRPRPRPFYLPRP | -0.336
RRIRVRPPRLPRPRPRPWSRPRP | -0.273
RRIRRRPPRLPRPRPRPHMHPRP | -0.083
RRIRPRPPRLPRPRPRPTTRPRP | 1.65
RRIRRRPPRLPRPRPRPLTGPRP | 0.0456
RRIRFRPPRLPRPRPRPCKLPRP | -1.48
RRIRERPPRLPRPRPRPSKYPRP | -1.02
RRIRLRPPRLPRPRPRPAHAPRP | 0.195
RRIRTRPPRLPRPRPRPYDNPRP | -0.141
RRIRYRPPRLPRPRPRPNGHPRP | -0.24

Sequence | shrunken log2 fold change
RRIRIRPPRLPRPRPRPKYPPRP | -0.121
RRIRARPPRLPRPRPRPAILPRP | -0.087
RRIRERPPRLPRPRPRPWHEPRP | -0.0932
RRIRCRPPRLPRPRPRPKFTPRP | -0.391
RRIRVRPPRLPRPRPRPFQWPRP | -0.126
RRIRFRPPRLPRPRPRPFPLPRP | -0.289
RRIRVRPPRLPRPRPRPCTYPRP | -0.0569
RRIRNRPPRLPRPRPRPGFMPRP | -0.0522
RRIRERPPRLPRPRPRPLPHPRP | -0.438
RRIRDRPPRLPRPRPRPENAPRP | 0.37
RRIRHRPPRLPRPRPRPMFPPRP | -0.281
RRIRGRPPRLPRPRPRPGRIPRP | 0.153
RRIRNRPPRLPRPRPRPDNLPRP | -1.04
RRIRYRPPRLPRPRPRPRVLPRP | -0.322
RRIRKRPPRLPRPRPRPRLYPRP | 0.0187
RRIRFRPPRLPRPRPRPIVLPRP | -0.196
RRIRMRPPRLPRPRPRPNWCPRP | 0.0361
RRIRHRPPRLPRPRPRPYNDPRP | -0.0648
RRIRYRPPRLPRPRPRPVGYPRP | -0.152
RRIRVRPPRLPRPRPRPATWPRP | 0.218
RRIRCRPPRLPRPRPRPQDHPRP | -0.226
RRIRCRPPRLPRPRPRPLRIPRP | -0.0238

Sequence | shrunken log2 fold change
RRIRARPPRLPRPRPRPIKGPRP | 0.3
RRIRSRPPRLPRPRPRPMKIPRP | 0.108
RRIRPRPPRLPRPRPRPEGGPRP | 0.329
RRIRCRPPRLPRPRPRPSEMPRP | -0.286
RRIRKRPPRLPRPRPRPNAVPRP | 0.385
RRIRRRPPRLPRPRPRPKCAPRP | 0.884
RRIRNRPPRLPRPRPRPFPFPRP | -0.22
RRIRTRPPRLPRPRPRPTTHPRP | 0.05
RRIRERPPRLPRPRPRPVETPRP | -0.02
RRIRNRPPRLPRPRPRPFLRPRP | -0.0221
RRIRCRPPRLPRPRPRPFLLPRP | -0.569
RRIRNRPPRLPRPRPRPCLGPRP | -0.219
RRIRPRPPRLPRPRPRPWDWPRP | 0.00784
RRIRMRPPRLPRPRPRPLPPPRP | 1.37
RRIRKRPPRLPRPRPRPHEIPRP | 0.704
RRIRPRPPRLPRPRPRPFIHPRP | -0.224
RRIRWRPPRLPRPRPRPDDGPRP | 0.305
RRIRHRPPRLPRPRPRPANEPRP | 0.0508
RRIRRRPPRLPRPRPRPNMAPRP | 0.0119
RRIRLRPPRLPRPRPRPQDQPRP | 0.14
RRIRKRPPRLPRPRPRPCCNPRP | 0.0185
RRIRIRPPRLPRPRPRPRRKPRP | 0.0881

Sequence | shrunken log2 fold change
RRIRYRPPRLPRPRPRPATDPRP | -0.327
RRIRSRPPRLPRPRPRPEFQPRP | 0.161
RRIRCRPPRLPRPRPRPHIFPRP | -1.15
RRIRERPPRLPRPRPRPGNPPRP | 0.00298
RRIRDRPPRLPRPRPRPPMHPRP | 0.319
RRIRMRPPRLPRPRPRPVKWPRP | 0.0346
RRIRHRPPRLPRPRPRPLTGPRP | -0.00273
RRIRIRPPRLPRPRPRPTWYPRP | -0.668
RRIRERPPRLPRPRPRPANTPRP | 1.45
RRIRGRPPRLPRPRPRPFNEPRP | -0.231
RRIRPRPPRLPRPRPRPPVHPRP | -0.0329
RRIRERPPRLPRPRPRPAYHPRP | -0.223
RRIRDRPPRLPRPRPRPRWEPRP | -0.0171
RRIRQRPPRLPRPRPRPCSIPRP | -0.022
RRIRARPPRLPRPRPRPCRQPRP | -0.0784
RRIRFRPPRLPRPRPRPIVAPRP | -0.112
RRIRKRPPRLPRPRPRPYVVPRP | -0.226
RRIRWRPPRLPRPRPRPPWPPRP | 0.503
RRIRIRPPRLPRPRPRPVFQPRP | -0.19
RRIRNRPPRLPRPRPRPCQNPRP | -0.835
RRIRTRPPRLPRPRPRPESGPRP | 0.366
RRIRMRPPRLPRPRPRPKPLPRP | 0.603

Sequence | shrunken log2 fold change
RRIRSRPPRLPRPRPRPHRRPRP | 0.0441
RRIRRRPPRLPRPRPRPSFNPRP | -0.192
RRIRRRPPRLPRPRPRPMHQPRP | -0.105
RRIRMRPPRLPRPRPRPSYTPRP | -0.38
RRIRLRPPRLPRPRPRPSKVPRP | -0.117
RRIRKRPPRLPRPRPRPQSHPRP | 0.353
RRIRHRPPRLPRPRPRPSNNPRP | -0.549
RRIRCRPPRLPRPRPRPNWSPRP | -0.206
RRIRERPPRLPRPRPRPWWAPRP | -0.0718
RRIRVRPPRLPRPRPRPHSLPRP | -0.232
RRIRRRPPRLPRPRPRPCHGPRP | -0.589
RRIRPRPPRLPRPRPRPTVWPRP | 0.747
RRIRNRPPRLPRPRPRPPDSPRP | 0.0377
RRIRARPPRLPRPRPRPLQTPRP | 0.0966
RRIRGRPPRLPRPRPRPMWAPRP | 0.925
RRIRKRPPRLPRPRPRPKAIPRP | 0.0275
RRIRIRPPRLPRPRPRPGCVPRP | -0.00757
RRIRVRPPRLPRPRPRPKEGPRP | 0.0282
RRIRGRPPRLPRPRPRPYWQPRP | -0.369
RRIRCRPPRLPRPRPRPNAYPRP | -0.502
RRIRLRPPRLPRPRPRPCNCPRP | 0.045
